In data set [1] the test system is S1: Biotin-CGPVGLIGK(Cy7)eGvndneeGffsar-NH2.
The subject of data set [2] is S3: Biotin-CGPLGVRGKK(Cy7)eGvndneeGffsar-NH2.
Data set [3] concerns C1-NPs: fluorescein-conjugated MMP substrate peptide C1 (FAM-sk-PLGLEEA-GC) coupled to iron oxide nanoparticles.
Data set [4] concerns DMNPE-veiled C1-NPs (STREAMs).
Data set [5] relates to S2: Biotin-CGPVPLSLVMK(Cy7)eGvndneeGffsar-NH2.
Sequence of S2: Biotin-CGPVPLSLVMK(Cy7)eGvndneeGffsar-NH2 (chain, as listed by the source): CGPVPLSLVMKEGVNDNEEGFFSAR

Sequence of recombinant MMP9 (chain, as listed by the source): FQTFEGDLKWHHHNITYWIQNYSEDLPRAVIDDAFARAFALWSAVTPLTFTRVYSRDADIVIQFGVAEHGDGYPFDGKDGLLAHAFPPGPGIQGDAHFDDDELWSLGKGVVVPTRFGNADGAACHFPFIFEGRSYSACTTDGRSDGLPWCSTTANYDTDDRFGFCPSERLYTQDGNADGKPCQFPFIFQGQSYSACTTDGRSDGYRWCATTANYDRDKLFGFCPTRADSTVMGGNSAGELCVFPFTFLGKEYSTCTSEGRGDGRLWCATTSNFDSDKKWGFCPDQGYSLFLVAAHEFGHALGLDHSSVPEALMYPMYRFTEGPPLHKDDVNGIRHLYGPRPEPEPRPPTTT
Sequence of S1: Biotin-CGPVGLIGK(Cy7)eGvndneeGffsar-NH2 (chain, as listed by the source): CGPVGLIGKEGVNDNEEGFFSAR
Sequence of recombinant MMP2 (chain, as listed by the source): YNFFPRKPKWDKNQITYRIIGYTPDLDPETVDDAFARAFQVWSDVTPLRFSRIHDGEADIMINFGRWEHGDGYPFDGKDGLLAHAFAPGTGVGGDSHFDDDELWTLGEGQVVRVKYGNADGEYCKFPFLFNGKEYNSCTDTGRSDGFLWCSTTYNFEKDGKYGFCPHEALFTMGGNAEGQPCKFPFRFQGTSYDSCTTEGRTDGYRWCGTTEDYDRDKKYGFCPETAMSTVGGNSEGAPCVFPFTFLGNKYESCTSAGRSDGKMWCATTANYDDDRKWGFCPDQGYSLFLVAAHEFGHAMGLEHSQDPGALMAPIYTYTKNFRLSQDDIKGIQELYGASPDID
Sequence of S3: Biotin-CGPLGVRGKK(Cy7)eGvndneeGffsar-NH2 (chain, as listed by the source): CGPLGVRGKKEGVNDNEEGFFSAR
Sequence of recombinant MMP19 (chain, as listed by the source): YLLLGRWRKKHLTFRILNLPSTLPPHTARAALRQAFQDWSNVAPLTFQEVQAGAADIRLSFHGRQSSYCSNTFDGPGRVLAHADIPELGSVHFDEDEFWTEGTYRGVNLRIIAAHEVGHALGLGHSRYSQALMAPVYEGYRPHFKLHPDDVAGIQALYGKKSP

For the substance recombinant MMP2, the “relative proteolysis (Cy7 signal after streptavidin depletion of uncleaved peptide)” value (shortened to “relative proteolysis”) in data set [1] was “responded primarily to MMP2 and MMP9”; in data set [2], “responded primarily to MMP2 and MMP9”.
Regarding recombinant MMP9, the “catalytic efficiency (Michaelis-Menten fit)” value in data set [3] was “catalytic efficiencies>10^3 M^-1 s^-1 and 10^4 M^-1 s^-1, respectively”. In addition, the “proteolysis (fluorescence dequenching)” value in data set [3] is “significantly cleaved by MMP13, 7, 1, and 9”; in data set [4] it was “marked reduction in proteolysis”. Moreover, the “relative proteolysis” value in data set [1] was “responded primarily to MMP2 and MMP9”; in data set [2], “responded primarily to MMP2 and MMP9”.
As to recombinant MMP13, in data set [3], the “fluorescence dequenching measurements of protease cleavage” value is given as “with MMP13 as the most efficient”; the “proteolysis (fluorescence dequenching)” value is “significantly cleaved by MMP13, 7, 1, and 9”. Further, the “proteolysis (fluorescence dequenching)” value in data set [4] is reported as “marked reduction in proteolysis”.
Regarding recombinant MMP19, in data set [5], the “relative proteolysis” value was “cleaved efficiently by MMP7 and MMP19”.
As to recombinant thrombin, in data set [4], the “cleavage monitored by fluorescence release” value was “reduced cleavage of the substrate”.

Source of the values: US20190144917.
